B1: Kelch-like protein 12 (Homo sapiens), Q53G59 (parent)
chain: MGGIMAPKDIMTNTHAKSILNSMNSLRKSNTLCDVTLRVEQKDFPAHRIVLAACSDYFCAMFTSELSEKGKPYVDIQGLTASTMEILLDFVYTETVHVTVENVQELLPAACLLQLKGVKQACCEFLESQLDPSNCLGIRDFAETHNCVDLMQAAEVFSQKHFPEVVQHEEFILLSQGEVEKLIKCDEIQVDSEEPVFEAVINWVKHAKKEREESLPNLLQYVRMPLLTPRYITDVIDAEPFIRCSLQCRDLVDEAKKFHLRPELRSQMQGPRTRARLGANEVLLVVGGFGSQQSPIDVVEKYDPKTQEWSFLPSITRKRRYVASVSLHDRIYVIGGYDGRSRLSSVECLDYTADEDGVWYSVAPMNVRRGLAGATTLGDMIYVSGGFDGSRRHTSMERYDPNIDQWSMLGDMQTAREGAGLVVASGVIYCLGGYDGLNILNSVEKYDPHTGHWTNVTPMATKRSGAGVALLNDHIYVVGGFDGTAHLSSVEAYNIRTDSWTTVTSMTTPRCYVGATVLRGRLYAIAGYDGNSLLSSIECYDPIIDSWEVVTSMGTQRCDAGVCVLREK

Variants of: B1
Settings: with fxl17_human FBXL17, Q9UF56
Sequence of fxl17_human FBXL17, Q9UF56 (Q9UF56 whole entry): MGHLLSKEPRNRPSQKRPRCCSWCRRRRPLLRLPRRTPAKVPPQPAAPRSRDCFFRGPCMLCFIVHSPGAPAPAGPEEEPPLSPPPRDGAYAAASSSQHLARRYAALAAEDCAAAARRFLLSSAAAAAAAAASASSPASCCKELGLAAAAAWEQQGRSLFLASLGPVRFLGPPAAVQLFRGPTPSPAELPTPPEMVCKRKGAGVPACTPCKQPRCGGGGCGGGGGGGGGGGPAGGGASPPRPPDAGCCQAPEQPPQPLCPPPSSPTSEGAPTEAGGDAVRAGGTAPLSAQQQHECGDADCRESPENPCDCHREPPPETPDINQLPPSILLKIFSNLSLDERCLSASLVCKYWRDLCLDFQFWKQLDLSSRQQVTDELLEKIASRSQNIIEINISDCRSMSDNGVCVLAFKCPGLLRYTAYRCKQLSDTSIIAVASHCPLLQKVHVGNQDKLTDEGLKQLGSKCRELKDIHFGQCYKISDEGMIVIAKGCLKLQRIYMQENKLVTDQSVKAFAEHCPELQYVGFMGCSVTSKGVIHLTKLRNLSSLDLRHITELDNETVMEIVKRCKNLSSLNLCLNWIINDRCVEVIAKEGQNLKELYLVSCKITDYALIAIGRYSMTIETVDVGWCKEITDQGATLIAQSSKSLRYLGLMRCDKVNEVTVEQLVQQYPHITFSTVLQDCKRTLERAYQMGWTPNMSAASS

effect of a mutation on the interaction	Variant
causing an interaction	MGGIMAPKDIMTNTHAKSILNSMNSLRKSNTLFDVTLRVEQKDFPAHRIVLAACSDYFCAMFTSELSEKGKPYVDIQGLTASTMEILLDFVYTETVHVTVENVQELLPAACLLQLKGVKQACCEFLESQLDPSNCLGIRDFAETHNCVDLMQAAEVFSQKHFPEVVQHEEFILLSQGEVEKLIKCDEIQVDSEEPVFEAVINWVKHAKKEREESLPNLLQYVRMPLLTPRYITDVIDAEPFIRCSLQCRDLVDEAKKFHLRPELRSQMQGPRTRARLGANEVLLVVGGFGSQQSPIDVVEKYDPKTQEWSFLPSITRKRRYVASVSLHDRIYVIGGYDGRSRLSSVECLDYTADEDGVWYSVAPMNVRRGLAGATTLGDMIYVSGGFDGSRRHTSMERYDPNIDQWSMLGDMQTAREGAGLVVASGVIYCLGGYDGLNILNSVEKYDPHTGHWTNVTPMATKRSGAGVALLNDHIYVVGGFDGTAHLSSVEAYNIRTDSWTTVTSMTTPRCYVGATVLRGRLYAIAGYDGNSLLSSIECYDPIIDSWEVVTSMGTQRCDAGVCVLREK [C33F]
causing an interaction	MGGIMAPKDIMTNTHAKSILNSMNSLRKSNTLCDVTLRVEQKDFPAHRIALAACSDYFCAMFTSELSEKGKPYVDIQGLTASTMEILLDFVYTETVHVTVENVQELLPAACLLQLKGVKQACCEFLESQLDPSNCLGIRDFAETHNCVDLMQAAEVFSQKHFPEVVQHEEFILLSQGEVEKLIKCDEIQVDSEEPVFEAVINWVKHAKKEREESLPNLLQYVRMPLLTPRYITDVIDAEPFIRCSLQCRDLVDEAKKFHLRPELRSQMQGPRTRARLGANEVLLVVGGFGSQQSPIDVVEKYDPKTQEWSFLPSITRKRRYVASVSLHDRIYVIGGYDGRSRLSSVECLDYTADEDGVWYSVAPMNVRRGLAGATTLGDMIYVSGGFDGSRRHTSMERYDPNIDQWSMLGDMQTAREGAGLVVASGVIYCLGGYDGLNILNSVEKYDPHTGHWTNVTPMATKRSGAGVALLNDHIYVVGGFDGTAHLSSVEAYNIRTDSWTTVTSMTTPRCYVGATVLRGRLYAIAGYDGNSLLSSIECYDPIIDSWEVVTSMGTQRCDAGVCVLREK [V50A]
with no effect	MGGIMAPKDIMTNTHAKSILNSMKSLRKSNTLCDVTLRVEQKDFPAHRIVLAACSDYFCKMFTSELSEKGKPYVDIQGLTASTMEILLDFVYTETVHVTVENVQELLPAACLLQLKGVKQACCEFLESQLDPSNCLGIRDFAETHNCVDLMQAAEVFSQKHFPEVVQHEEFILLSQGEVEKLIKCDEIQVDSEEPVFEAVINWVKHAKKEREESLPNLLQYVRMPLLTPRYITDVIDAEPFIRCSLQCRDLVDEAKKFHLRPELRSQMQGPRTRARLGANEVLLVVGGFGSQQSPIDVVEKYDPKTQEWSFLPSITRKRRYVASVSLHDRIYVIGGYDGRSRLSSVECLDYTADEDGVWYSVAPMNVRRGLAGATTLGDMIYVSGGFDGSRRHTSMERYDPNIDQWSMLGDMQTAREGAGLVVASGVIYCLGGYDGLNILNSVEKYDPHTGHWTNVTPMATKRSGAGVALLNDHIYVVGGFDGTAHLSSVEAYNIRTDSWTTVTSMTTPRCYVGATVLRGRLYAIAGYDGNSLLSSIECYDPIIDSWEVVTSMGTQRCDAGVCVLREK [N24K;A60K]
with no effect	MGGIMAPKDIMTNTHAKSILNSMNSLDKSNTLCDVTLRVEQKDFPAHRIVLAACSDYFCAMFTSELSEKGKPYVDIQGLTASTMEILLDFVYTETVHVTVENVQELLPAACLLQLKGVKQACCEFLESQLDPSNCLGIRDFAETHNCVDLMQAAEVFSQKHFPEVVQHEEFILLSQGEVEKLIKCDEIQVDSEEPVFEAVINWVKHAKKEREESLPNLLQYVRMPLLTPRYITDVIDAEPFIRCSLQCRDLVDEAKKFHLRPELRSQMQGPRTRARLGANEVLLVVGGFGSQQSPIDVVEKYDPKTQEWSFLPSITRKRRYVASVSLHDRIYVIGGYDGRSRLSSVECLDYTADEDGVWYSVAPMNVRRGLAGATTLGDMIYVSGGFDGSRRHTSMERYDPNIDQWSMLGDMQTAREGAGLVVASGVIYCLGGYDGLNILNSVEKYDPHTGHWTNVTPMATKRSGAGVALLNDHIYVVGGFDGTAHLSSVEAYNIRTDSWTTVTSMTTPRCYVGATVLRGRLYAIAGYDGNSLLSSIECYDPIIDSWEVVTSMGTQRCDAGVCVLREK [R27D]
causing an interaction	MGGIMAPKDIMTNTHAKSILNSMNSLAKSNTLCDVTLRVEQKDFPAHRIVLAACSDYFCAMFTSELSEKGKPYVDIQGLTASTMEILLDFVYTETVHVTVENVQELLPAACLLQLKGVKQACCEFLESQLDPSNCLGIRDFAETHNCVDLMQAAEVFSQKHFPEVVQHEEFILLSQGEVEKLIKCDEIQVDSEEPVFEAVINWVKHAKKEREESLPNLLQYVRMPLLTPRYITDVIDAEPFIRCSLQCRDLVDEAKKFHLRPELRSQMQGPRTRARLGANEVLLVVGGFGSQQSPIDVVEKYDPKTQEWSFLPSITRKRRYVASVSLHDRIYVIGGYDGRSRLSSVECLDYTADEDGVWYSVAPMNVRRGLAGATTLGDMIYVSGGFDGSRRHTSMERYDPNIDQWSMLGDMQTAREGAGLVVASGVIYCLGGYDGLNILNSVEKYDPHTGHWTNVTPMATKRSGAGVALLNDHIYVVGGFDGTAHLSSVEAYNIRTDSWTTVTSMTTPRCYVGATVLRGRLYAIAGYDGNSLLSSIECYDPIIDSWEVVTSMGTQRCDAGVCVLREK [R27A]
causing an interaction	MGGIMAPKDIMTNTHAKSILNSMNSLRKSNTLCDVTLRVEQKDFPAHRDVLAACSDYFCAMFTSELSEKGKPYVDIQGLTASTMEILLDFVYTETVHVTVENVQELLPAACLLQLKGVKQACCEFLESQLDPSNCLGIRDFAETHNCVDLMQAAEVFSQKHFPEVVQHEEFILLSQGEVEKLIKCDEIQVDSEEPVFEAVINWVKHAKKEREESLPNLLQYVRMPLLTPRYITDVIDAEPFIRCSLQCRDLVDEAKKFHLRPELRSQMQGPRTRARLGANEVLLVVGGFGSQQSPIDVVEKYDPKTQEWSFLPSITRKRRYVASVSLHDRIYVIGGYDGRSRLSSVECLDYTADEDGVWYSVAPMNVRRGLAGATTLGDMIYVSGGFDGSRRHTSMERYDPNIDQWSMLGDMQTAREGAGLVVASGVIYCLGGYDGLNILNSVEKYDPHTGHWTNVTPMATKRSGAGVALLNDHIYVVGGFDGTAHLSSVEAYNIRTDSWTTVTSMTTPRCYVGATVLRGRLYAIAGYDGNSLLSSIECYDPIIDSWEVVTSMGTQRCDAGVCVLREK [I49D]
causing an interaction	MGGIMAPKDIMTNTHAKSILNSMNSLRKSNTLCDVTLRVEQKDFPAHRAVLAACSDYFCAMFTSELSEKGKPYVDIQGLTASTMEILLDFVYTETVHVTVENVQELLPAACLLQLKGVKQACCEFLESQLDPSNCLGIRDFAETHNCVDLMQAAEVFSQKHFPEVVQHEEFILLSQGEVEKLIKCDEIQVDSEEPVFEAVINWVKHAKKEREESLPNLLQYVRMPLLTPRYITDVIDAEPFIRCSLQCRDLVDEAKKFHLRPELRSQMQGPRTRARLGANEVLLVVGGFGSQQSPIDVVEKYDPKTQEWSFLPSITRKRRYVASVSLHDRIYVIGGYDGRSRLSSVECLDYTADEDGVWYSVAPMNVRRGLAGATTLGDMIYVSGGFDGSRRHTSMERYDPNIDQWSMLGDMQTAREGAGLVVASGVIYCLGGYDGLNILNSVEKYDPHTGHWTNVTPMATKRSGAGVALLNDHIYVVGGFDGTAHLSSVEAYNIRTDSWTTVTSMTTPRCYVGATVLRGRLYAIAGYDGNSLLSSIECYDPIIDSWEVVTSMGTQRCDAGVCVLREK [I49A]
with no effect	MGGIMAPKDIMTNTHAKSILNSMNSLAKSNTLCDVTLRVEQKDFPAHRIVLAACSDYFCKMFTSELSEKGKPYVDIQGLTASTMEILLDFVYTETVHVTVENVQELLPAACLLQLKGVKQACCEFLESQLDPSNCLGIRDFAETHNCVDLMQAAEVFSQKHFPEVVQHEEFILLSQGEVEKLIKCDEIQVDSEEPVFEAVINWVKHAKKEREESLPNLLQYVRMPLLTPRYITDVIDAEPFIRCSLQCRDLVDEAKKFHLRPELRSQMQGPRTRARLGANEVLLVVGGFGSQQSPIDVVEKYDPKTQEWSFLPSITRKRRYVASVSLHDRIYVIGGYDGRSRLSSVECLDYTADEDGVWYSVAPMNVRRGLAGATTLGDMIYVSGGFDGSRRHTSMERYDPNIDQWSMLGDMQTAREGAGLVVASGVIYCLGGYDGLNILNSVEKYDPHTGHWTNVTPMATKRSGAGVALLNDHIYVVGGFDGTAHLSSVEAYNIRTDSWTTVTSMTTPRCYVGATVLRGRLYAIAGYDGNSLLSSIECYDPIIDSWEVVTSMGTQRCDAGVCVLREK [R27A;A60K]
causing an interaction	MGGIMAPKDIMTNTHAKSILNSMKSLRKSNTLCDVTLRVEQKDFPAHRIVLAACSDYFCAMFTSELSEKGKPYVDIQGLTASTMEILLDFVYTETVHVTVENVQELLPAACLLQLKGVKQACCEFLESQLDPSNCLGIRDFAETHNCVDLMQAAEVFSQKHFPEVVQHEEFILLSQGEVEKLIKCDEIQVDSEEPVFEAVINWVKHAKKEREESLPNLLQYVRMPLLTPRYITDVIDAEPFIRCSLQCRDLVDEAKKFHLRPELRSQMQGPRTRARLGANEVLLVVGGFGSQQSPIDVVEKYDPKTQEWSFLPSITRKRRYVASVSLHDRIYVIGGYDGRSRLSSVECLDYTADEDGVWYSVAPMNVRRGLAGATTLGDMIYVSGGFDGSRRHTSMERYDPNIDQWSMLGDMQTAREGAGLVVASGVIYCLGGYDGLNILNSVEKYDPHTGHWTNVTPMATKRSGAGVALLNDHIYVVGGFDGTAHLSSVEAYNIRTDSWTTVTSMTTPRCYVGATVLRGRLYAIAGYDGNSLLSSIECYDPIIDSWEVVTSMGTQRCDAGVCVLREK [N24K]
with no effect	MGGIMAPKDIMTNTHAKSILNSMNSLRKSNTLFDVTLRVEQKDFPAHRIVLAACSDYFCKMFTSELSEKGKPYVDIQGLTASTMEILLDFVYTETVHVTVENVQELLPAACLLQLKGVKQACCEFLESQLDPSNCLGIRDFAETHNCVDLMQAAEVFSQKHFPEVVQHEEFILLSQGEVEKLIKCDEIQVDSEEPVFEAVINWVKHAKKEREESLPNLLQYVRMPLLTPRYITDVIDAEPFIRCSLQCRDLVDEAKKFHLRPELRSQMQGPRTRARLGANEVLLVVGGFGSQQSPIDVVEKYDPKTQEWSFLPSITRKRRYVASVSLHDRIYVIGGYDGRSRLSSVECLDYTADEDGVWYSVAPMNVRRGLAGATTLGDMIYVSGGFDGSRRHTSMERYDPNIDQWSMLGDMQTAREGAGLVVASGVIYCLGGYDGLNILNSVEKYDPHTGHWTNVTPMATKRSGAGVALLNDHIYVVGGFDGTAHLSSVEAYNIRTDSWTTVTSMTTPRCYVGATVLRGRLYAIAGYDGNSLLSSIECYDPIIDSWEVVTSMGTQRCDAGVCVLREK [C33F;A60K]

Variants of: B1
Settings: with cul3_human CUL3, Q13618

effect of a mutation on the interaction	Variant
with no effect	MGGIMAPKDIMTNTHAKSILNSMNSLRKSNTLCDVTLRVEQKDFPAHRIALAACSDYFCAMFTSELSEKGKPYVDIQGLTASTMEILLDFVYTETVHVTVENVQELLPAACLLQLKGVKQACCEFLESQLDPSNCLGIRDFAETHNCVDLMQAAEVFSQKHFPEVVQHEEFILLSQGEVEKLIKCDEIQVDSEEPVFEAVINWVKHAKKEREESLPNLLQYVRMPLLTPRYITDVIDAEPFIRCSLQCRDLVDEAKKFHLRPELRSQMQGPRTRARLGANEVLLVVGGFGSQQSPIDVVEKYDPKTQEWSFLPSITRKRRYVASVSLHDRIYVIGGYDGRSRLSSVECLDYTADEDGVWYSVAPMNVRRGLAGATTLGDMIYVSGGFDGSRRHTSMERYDPNIDQWSMLGDMQTAREGAGLVVASGVIYCLGGYDGLNILNSVEKYDPHTGHWTNVTPMATKRSGAGVALLNDHIYVVGGFDGTAHLSSVEAYNIRTDSWTTVTSMTTPRCYVGATVLRGRLYAIAGYDGNSLLSSIECYDPIIDSWEVVTSMGTQRCDAGVCVLREK [V50A]

Reference: IntAct's records for PubMed 30190310
